Experimental data as given in the supplement of paper PMC11908140.

B1: library; numbered along this chain (parent)
chain: MRKPRAAVGSGHRKQAASQEGRQKHAKNNSQAKPSACDGLARQPEEVVLQASVSSYHLFRDVAEVTAFRGSLLSWYDQEKRDLPWRRRAEDEMDLDRRAYAVWVSEVMLQQTQVATVINYYTGWMQKWPTLQDLASASLEEVNQLWAGLGYYSRGRRLQEGARKVVEELGGHMPRTAETLQQLLPGVGRYTAGAIASIAFGQATGVVDGNVARVLCRVRAIGADPSSTLVSQQLWGLAQQLVDPARPGDFNQAAMELGATVCTPQRPLCSQCPVESLCRARQRVEQEQLLASGSLSGSPDVEECAPNTGQCHLCLPPSEPWDQTLGVVNFPRKASRKPPREESSATCVLEQPGALGAQILLVQRPNSGLLAGLWEFPSVTWEPSEQLQRKALLQELQRWAGPLPATHLRHLGEVVHTFSHIKLTYQVYGLALEGQTPVTTVPPGARWLTQEEFHTAAVSTAMKKVFRVYQGQQPGTCMGSKRSQVSSPCSRKKPRMGQQVLDNFFRSHISTDAHSLNSAAQ

Variants of: B1
Assay: 8OG:A repair function score (normalized; synonymous = 0, nonsense = -1) (normalized log-likelihood score); higher = more repair activity (WT-like)
Conditions: with 8OG:A DNA repair reporter (GFP) in HEK-293 MUTYH KO cells
Protocol: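 Saturation mutagenesis (NNN codon scan) of the MUTYH cDNA (521-aa nuclear isoform NM_001048174.1 / NP_001041639), stably expressed under doxycycline induction in HEK-293 MUTYH knockout cells. Cells were co-transfected with an 8OG:A-bearing GFP repair reporter plus mCherry and sorted 72 h later into GFP+ and GFP− bins, three replicates per tile. The Rosace log2 enrichment (GFP+ vs GFP−) was converted per tile to a normalized function score with synonymous variants centered at 0 and nonsense variants (codons 1-471) at -1; low-abundance variants were removed.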

8OG:A repair function score of substitutions, site by site:
T122: I 0.0511 | E -0.0848 | S -0.0596 | H 0.0576 | G -0.143 | W -0.16 | F -0.0723 | V -0.0114 | C -0.0157 | A -0.000881 | R -0.0157 | L -0.0652 | D 0.0468 | K -0.158 | P 0.0277 | M -0.388 | Y -0.13 | Q 0.0683 | N 0.119
D133: A -0.000201 | P -0.372 | Q -0.164 | M 0.0651 | E -0.0313 | G 0.0336 | I -0.308 | C -0.201 | V -0.0608 | F -0.0791 | K -0.175 | S 0.0612 | T -0.0145 | H -0.0208 | R -0.0865 | N 0.0132 | W -0.988 | Y -0.727 | L -0.0567
Q126: R 0.0261 | T 0.049 | W -0.256 | S 0.0362 | M 0.0168 | I -0.00505 | K 0.0876 | V -0.0961 | C -0.239 | L 0.0989 | A 0.00568 | N 0.0504 | P -0.376 | G -0.0912 | H -0.0777 | Y -0.055 | D 0.00176 | F 0.0114 | E 0.0677
V117: T 0.0387 | S -0.427 | M -0.226 | N -1.21 | P -1.02 | W -0.737 | I -0.166 | Q -1.26 | L -0.727 | R -1.16 | D -1 | Y -1.28 | C 0.0468 | G -0.408 | E -0.683 | H -1.24 | K -1.84 | A 0.0474 | F -1.21
Y121: D -0.798 | N -3.31 | C -1.17 | H -0.853 | M -0.933 | F -0.109 | V -0.91 | G -1.09 | W -0.427 | P -1.26 | E -1.92 | K -1.13 | S -0.866 | I -0.562 | Q -0.765 | A -0.942 | R -0.993 | T -1.25 | L -0.993
W128: Y -0.0875 | F -0.156 | G -0.819 | Q -0.844 | L -0.0988 | C -0.476 | V -0.224 | M -0.374 | P -1.23 | R -0.696 | I -0.397 | K -0.455 | H -0.948 | T -0.721 | N -0.681 | E -0.929 | A -0.875 | D -1.27 | S -0.935
Q132: C -0.154 | D 0.0351 | P 0.0126 | H -0.0442 | W -0.228 | T 0.0372 | V -0.0799 | R 0.00437 | N -0.0864 | I -0.0124 | E -0.0366 | F -0.327 | K -0.364 | Y -0.125 | L -0.194 | G -0.076 | S -0.109 | A 0.059 | M -0.0607
T130: A -0.214 | P -0.9 | G -0.0108 | I -0.27 | W -0.522 | M -0.278 | Q -0.123 | K -0.0846 | Y -0.392 | R -0.049 | S 0.107 | E -0.171 | H -0.115 | L -0.336 | V -0.178 | D 0.137 | N -0.00511 | F -0.197 | C -0.578
N119: Y -0.361 | G 0.0963 | Q -0.00304 | H 0.126 | A 0.121 | I -0.263 | F -0.259 | C -0.0452 | D -0.419 | V 0.0134 | W -0.704 | S -0.294 | M -0.216 | K -0.0285 | E -0.069 | L -0.112 | R 0.0743 | P -0.0904 | T -0.0798
Y120: E -0.482 | Q -0.154 | V -0.224 | L -0.231 | I -0.425 | P -0.134 | N -0.333 | S -0.126 | G -0.347 | D -0.428 | A -0.24 | C -0.227 | M -0.0214 | T 0.0371 | K 0.0493 | R -0.0662 | W -0.465 | H -0.238 | F -0.0973
T116: M -0.441 | V -0.0225 | K 0.113 | R 0.0298 | L 0.023 | N -0.15 | Y -0.0318 | Q -0.21 | S -0.0572 | P -0.326 | W -0.0903
P129: C -0.403 | A -0.267 | W -0.109 | D -0.0868 | L -0.577 | G -0.263 | T -0.491 | E -0.084 | M -0.298 | H -0.193 | N -0.266 | R -0.477 | Q -0.0447 | S -0.231 | I -0.53 | F -0.742 | V -0.608 | K -0.414 | Y -0.513
K127: F -0.207 | D -1.32 | V -0.306 | H 0.135 | W -0.529 | S -0.0418 | E -0.0486 | T -0.072 | Q -0.208 | L -0.0156 | A -0.303 | C 0.0938 | I -0.204 | P -0.884 | Y -0.398 | N -0.0772 | R 0.014 | M -0.286 | G -0.408
L131: H -0.283 | V -0.0573 | A -0.104 | N -0.249 | E -0.608 | S -0.315 | I -0.158 | K -0.394 | G -0.424 | Y -0.228 | C -0.139 | D -1.1 | P -0.153 | F 0.00215 | R -0.798 | M 0.0751 | T -0.0104 | W -1.21 | Q -0.814
W124: V -0.516 | T -0.869 | H -0.678 | E -1.01 | D -0.574 | S -0.825 | Q -0.557 | A -0.577 | L -0.378 | F 0.00143 | Y -0.973 | R -1.05 | K -0.931 | P -0.593 | M -1.62 | C -0.794 | G -0.892 | I -0.714 | N -1.01
I118: G -0.107 | E -0.0341 | V 0.00363 | Y -0.223 | Q -0.0947 | H 0.000662 | T -0.0724 | L -0.0284 | M -0.277 | R 0.0138 | P -0.112 | F -0.3 | W -0.13 | A -0.0372 | N -0.0549 | K -0.483 | S -0.0993 | D -0.182 | C 0.0146
M125: P -1.2 | F -0.273 | W -0.408 | V -0.308 | E -0.577 | R -0.877 | D -0.755 | Q -0.33 | L -0.161 | A -0.557 | H -0.401 | I -0.0973 | G -0.932 | N -0.838 | S -0.734 | C -0.306 | T -0.339 | Y -0.538 | K -0.523
G123: S 0.0793 | A 0.0469 | R 0.0952 | N -0.0109 | I 0.0985 | K 0.00116 | M -0.101 | F -0.0297 | H -0.0466 | L 0.0662 | W -0.322 | E -0.000943 | D -0.257 | V 0.0959 | Y -0.191 | Q 0.213 | P 0.0736 | T 0.0116 | C 0.124
